# Substitutions are numbered along the chain they refer to. Numbered stars: 1 amine (or outer) side, 2 acyl side, 3 side chain; on linkers, the order of the positions; unused ones are H or OH. Square brackets hold non-standard residues; d marks the D form. Side chains are listed from the residue outwards. Ends that are not written are not given here. * marks the point of attachment. C20 diacid = O=C(O)CCCCCCCCCCCCCCCCCCC(=O)*; C18 diacid = O=C(O)CCCCCCCCCCCCCCCCC(=O)*; γGlu = O=C(O)[C@H](CCC(=O)[*:2])N[*:1]; Palmitoyl = CCCCCCCCCCCCCCCC(=O)*; AEEA = NCCOCCOCC(=O)O; Aib = CC(C)(N)C(=O)O
# B1: Compound 3 (peptide)
# peptide: HXQGTFTSDKSKYLEERAAKEFVAWLKEGGPSSG
# HELM: PEPTIDE1{H.[Aib].Q.G.T.F.T.S.D.K.S.K.Y.L.E.E.R.A.A.K.E.F.V.A.W.L.K.E.G.G.P.S.S.G.[am]}|PEPTIDE2{[CCCCCCCCCCCCCCCC(=O)[*:2]].[gGlu].[gGlu]}$PEPTIDE1,PEPTIDE2,10:R3-3:R2$$$V2.0; N-terminus assumed
# SMILES: CCCCCCCCCCCCCCCC(=O)N[C@@H](CCC(=O)N[C@@H](CCC(=O)NCCCC[C@H](NC(=O)[C@H](CC(=O)O)NC(=O)[C@H](CO)NC(=O)[C@@H](NC(=O)[C@H](Cc1ccccc1)NC(=O)[C@@H](NC(=O)CNC(=O)[C@H](CCC(N)=O)NC(=O)C(C)(C)NC(=O)[C@@H](N)Cc1c[nH]cn1)[C@@H](C)O)[C@@H](C)O)C(=O)N[C@@H](CO)C(=O)N[C@@H](CCCCN)C(=O)N[C@@H](Cc1ccc(O)cc1)C(=O)N[C@@H](CC(C)C)C(=O)N[C@@H](CCC(=O)O)C(=O)N[C@@H](CCC(=O)O)C(=O)N[C@@H](CCCNC(=N)N)C(=O)N[C@@H](C)C(=O)N[C@@H](C)C(=O)N[C@@H](CCCCN)C(=O)N[C@@H](CCC(=O)O)C(=O)N[C@@H](Cc1ccccc1)C(=O)N[C@H](C(=O)N[C@@H](C)C(=O)N[C@@H](Cc1c[nH]c2ccccc12)C(=O)N[C@@H](CC(C)C)C(=O)N[C@@H](CCCCN)C(=O)N[C@@H](CCC(=O)O)C(=O)NCC(=O)NCC(=O)N1CCC[C@H]1C(=O)N[C@@H](CO)C(=O)N[C@@H](CO)C(=O)NCC(N)=O)C(C)C)C(=O)O)C(=O)O
# B2: Compound 11 (peptide)
# peptide: HXQGTFTSDKSKYLXEKRAKEFIXWLEAGGPSSG
# HELM: PEPTIDE1{H.[Aib].Q.G.T.F.T.S.D.K.S.K.Y.L.E.E.K.R.A.K.E.F.I.E.W.L.E.A.G.G.P.S.S.G.[am]}|PEPTIDE2{[CCCCCCCCCCCCCCCC(=O)[*:2]].[gGlu].[gGlu]}$PEPTIDE1,PEPTIDE2,10:R3-3:R2$$$V2.0; N-terminus assumed
# SMILES: CCCCCCCCCCCCCCCC(=O)N[C@@H](CCC(=O)N[C@@H](CCC(=O)NCCCC[C@H](NC(=O)[C@H](CC(=O)O)NC(=O)[C@H](CO)NC(=O)[C@@H](NC(=O)[C@H](Cc1ccccc1)NC(=O)[C@@H](NC(=O)CNC(=O)[C@H](CCC(N)=O)NC(=O)C(C)(C)NC(=O)[C@@H](N)Cc1c[nH]cn1)[C@@H](C)O)[C@@H](C)O)C(=O)N[C@@H](CO)C(=O)N[C@@H](CCCCN)C(=O)N[C@@H](Cc1ccc(O)cc1)C(=O)N[C@@H](CC(C)C)C(=O)N[C@@H](CCC(=O)O)C(=O)N[C@@H](CCC(=O)O)C(=O)N[C@@H](CCCCN)C(=O)N[C@@H](CCCNC(=N)N)C(=O)N[C@@H](C)C(=O)N[C@@H](CCCCN)C(=O)N[C@@H](CCC(=O)O)C(=O)N[C@@H](Cc1ccccc1)C(=O)N[C@H](C(=O)N[C@@H](CCC(=O)O)C(=O)N[C@@H](Cc1c[nH]c2ccccc12)C(=O)N[C@@H](CC(C)C)C(=O)N[C@@H](CCC(=O)O)C(=O)N[C@@H](C)C(=O)NCC(=O)NCC(=O)N1CCC[C@H]1C(=O)N[C@@H](CO)C(=O)N[C@@H](CO)C(=O)NCC(N)=O)[C@@H](C)CC)C(=O)O)C(=O)O
# B3: Compound 13 (peptide)
# peptide: H[Aib]QGTFTSDK([AEEA-AEEA-γGlu-C20 diacid])SKYLDERAAKEFVAWLEAGGPSSG-NH2
# modifications: not fully specified; printed as HAibQGTFTSDK***SKYLDERAAKEFVAWLEAGGPSSG-Amid
# B4: Compound 7 (peptide)
# peptide: H[Aib]QGTFTSDK([γGlu-γGlu-Palmitoyl])SKYLEERAAKEFVEWLEGGPSSG-NH2
# modifications: not fully specified; printed as HAibQGTFTSDK*SKYLEERAAKEFVEWLEGGPSSG-Amid
# B5: Compound 5 (peptide)
# peptide: HXQGTFTSDKSKYLXERAAKEFVXWLEGGPSSG
# HELM: PEPTIDE1{H.[Aib].Q.G.T.F.T.S.D.K.S.K.Y.L.E.E.R.A.A.K.E.F.V.E.W.L.E.G.G.P.S.S.G.[am]}|PEPTIDE2{[CCCCCCCCCCCCCCCC(=O)[*:2]].[gGlu].[gGlu]}$PEPTIDE1,PEPTIDE2,10:R3-3:R2$$$V2.0; N-terminus assumed
# SMILES: CCCCCCCCCCCCCCCC(=O)N[C@@H](CCC(=O)N[C@@H](CCC(=O)NCCCC[C@H](NC(=O)[C@H](CC(=O)O)NC(=O)[C@H](CO)NC(=O)[C@@H](NC(=O)[C@H](Cc1ccccc1)NC(=O)[C@@H](NC(=O)CNC(=O)[C@H](CCC(N)=O)NC(=O)C(C)(C)NC(=O)[C@@H](N)Cc1c[nH]cn1)[C@@H](C)O)[C@@H](C)O)C(=O)N[C@@H](CO)C(=O)N[C@@H](CCCCN)C(=O)N[C@@H](Cc1ccc(O)cc1)C(=O)N[C@@H](CC(C)C)C(=O)N[C@@H](CCC(=O)O)C(=O)N[C@@H](CCC(=O)O)C(=O)N[C@@H](CCCNC(=N)N)C(=O)N[C@@H](C)C(=O)N[C@@H](C)C(=O)N[C@@H](CCCCN)C(=O)N[C@@H](CCC(=O)O)C(=O)N[C@@H](Cc1ccccc1)C(=O)N[C@H](C(=O)N[C@@H](CCC(=O)O)C(=O)N[C@@H](Cc1c[nH]c2ccccc12)C(=O)N[C@@H](CC(C)C)C(=O)N[C@@H](CCC(=O)O)C(=O)NCC(=O)NCC(=O)N1CCC[C@H]1C(=O)N[C@@H](CO)C(=O)N[C@@H](CO)C(=O)NCC(N)=O)C(C)C)C(=O)O)C(=O)O
# B6: Compound 77 (peptide)
# peptide: H[Aib]QGTFTSDK([AEEA-AEEA-γGlu-C20 diacid])SKYLDERAAKEFIAWLEAGGPSSG-NH2
# modifications: not fully specified; printed as HAibQGTFTSDK***SKYLDERAAKEFIAWLEAGGPSSG-Amid
# B7: Compound 2 (peptide)
# peptide: B2 peptide with K17R, R18A, I23V
# HELM: PEPTIDE1{H.[Aib].Q.G.T.F.T.S.D.K.S.K.Y.L.E.E.R.A.A.K.E.F.V.E.W.L.E.A.G.G.P.S.S.G.[am]}|PEPTIDE2{[CCCCCCCCCCCCCCCC(=O)[*:2]].[gGlu].[gGlu]}$PEPTIDE1,PEPTIDE2,10:R3-3:R2$$$V2.0; N-terminus assumed
# SMILES: CCCCCCCCCCCCCCCC(=O)N[C@@H](CCC(=O)N[C@@H](CCC(=O)NCCCC[C@H](NC(=O)[C@H](CC(=O)O)NC(=O)[C@H](CO)NC(=O)[C@@H](NC(=O)[C@H](Cc1ccccc1)NC(=O)[C@@H](NC(=O)CNC(=O)[C@H](CCC(N)=O)NC(=O)C(C)(C)NC(=O)[C@@H](N)Cc1c[nH]cn1)[C@@H](C)O)[C@@H](C)O)C(=O)N[C@@H](CO)C(=O)N[C@@H](CCCCN)C(=O)N[C@@H](Cc1ccc(O)cc1)C(=O)N[C@@H](CC(C)C)C(=O)N[C@@H](CCC(=O)O)C(=O)N[C@@H](CCC(=O)O)C(=O)N[C@@H](CCCNC(=N)N)C(=O)N[C@@H](C)C(=O)N[C@@H](C)C(=O)N[C@@H](CCCCN)C(=O)N[C@@H](CCC(=O)O)C(=O)N[C@@H](Cc1ccccc1)C(=O)N[C@H](C(=O)N[C@@H](CCC(=O)O)C(=O)N[C@@H](Cc1c[nH]c2ccccc12)C(=O)N[C@@H](CC(C)C)C(=O)N[C@@H](CCC(=O)O)C(=O)N[C@@H](C)C(=O)NCC(=O)NCC(=O)N1CCC[C@H]1C(=O)N[C@@H](CO)C(=O)N[C@@H](CO)C(=O)NCC(N)=O)C(C)C)C(=O)O)C(=O)O
# B8: Compound 4 (peptide)
# peptide: B2 peptide with K17R, R18A, I23V
# HELM: PEPTIDE1{H.[Aib].Q.G.T.F.T.S.D.K.S.K.Y.L.E.E.R.A.A.K.E.F.V.A.W.L.E.A.G.G.P.S.S.G.[am]}|PEPTIDE2{[CCCCCCCCCCCCCCCC(=O)[*:2]].[gGlu].[gGlu]}$PEPTIDE1,PEPTIDE2,10:R3-3:R2$$$V2.0; N-terminus assumed
# SMILES: CCCCCCCCCCCCCCCC(=O)N[C@@H](CCC(=O)N[C@@H](CCC(=O)NCCCC[C@H](NC(=O)[C@H](CC(=O)O)NC(=O)[C@H](CO)NC(=O)[C@@H](NC(=O)[C@H](Cc1ccccc1)NC(=O)[C@@H](NC(=O)CNC(=O)[C@H](CCC(N)=O)NC(=O)C(C)(C)NC(=O)[C@@H](N)Cc1c[nH]cn1)[C@@H](C)O)[C@@H](C)O)C(=O)N[C@@H](CO)C(=O)N[C@@H](CCCCN)C(=O)N[C@@H](Cc1ccc(O)cc1)C(=O)N[C@@H](CC(C)C)C(=O)N[C@@H](CCC(=O)O)C(=O)N[C@@H](CCC(=O)O)C(=O)N[C@@H](CCCNC(=N)N)C(=O)N[C@@H](C)C(=O)N[C@@H](C)C(=O)N[C@@H](CCCCN)C(=O)N[C@@H](CCC(=O)O)C(=O)N[C@@H](Cc1ccccc1)C(=O)N[C@H](C(=O)N[C@@H](C)C(=O)N[C@@H](Cc1c[nH]c2ccccc12)C(=O)N[C@@H](CC(C)C)C(=O)N[C@@H](CCC(=O)O)C(=O)N[C@@H](C)C(=O)NCC(=O)NCC(=O)N1CCC[C@H]1C(=O)N[C@@H](CO)C(=O)N[C@@H](CO)C(=O)NCC(N)=O)C(C)C)C(=O)O)C(=O)O
# B9: Compound 35 (peptide)
# peptide: H[Aib]QGTFTSDK([AEEA-AEEA-γGlu-C20 diacid])SKYLEERAAKEFIAWLEAGGPSSG-NH2
# modifications: not fully specified; printed as HAibQGTFTSDK***SKYLEERAAKEFIAWLEAGGPSSG-Amid
# B10: Compound 6 (peptide)
# peptide: H[Aib]QGTFTSDK([AEEA-AEEA-γGlu-C18 diacid])SKYLEERAAKEFIAWLEGGPSSG-NH2
# modifications: not fully specified; printed as HAibQGTFTSDK**SKYLEERAAKEFIAWLEGGPSSG-Amid
# B11: Compound 75 (peptide)
# peptide: H[Aib]QGTFTSDK([AEEA-AEEA-γGlu-C18 diacid])SKYLDERAAKEFIAWLEGGPSSG-NH2
# modifications: not fully specified; printed as HAibQGTFTSDK**SKYLDERAAKEFIAWLEGGPSSG-Amid
# Molecular target: human GLP-1 receptor (human, UniProt P43220 24-463)
# Assay: cell-based or functional assay
row,EC50 of GLP-1 receptor mediated cAMP production [nM],Binder
1,20.8,B1
2,3.05,B2
3,0.076,B3
4,0.72,B4
5,0.26,B5

# Molecular target: GC receptor
# Assay: cell-based or functional assay
row,EC50 of GC receptor mediated cAMP production [nM],Binder
1,0.076,B6
2,0.1,B1
3,0.0352,B7
4,0.024,B8
5,0.036,B9
6,0.052,B10
7,1.73,B2
8,0.087,B11
9,0.033,B3

# — patent US20240252592A1 (TIANJIN INSTITUTE OF PHARMACEUTICAL RESEARCH, published 2024)
